Source: paper PMC9747239, “State-selective modulation of heterotrimeric Gαs signaling with macrocyclic peptides” (Cell, 2022)

Target: T1, His-Gβ1/Gγ2(C68S) (human, UniProt P62873 1-340; P59768 1-71, C68S)
T1 construct: human Gβ1 (GNB1); human Gγ2 (GNG2) with C68S; also called Gβγ; Gβγ(C68S); source: Sf9, baculovirus (pFastBac Dual), co-expressed, purified (TALON, gel filtration); not shown: His6, N-terminal, kept
Test: AlphaScreen or HTRF; TR-FRET Gα/Gβγ interaction assay: 4 nM biotinylated avi-Gα with streptavidin XL665, 2 nM His-Gβ1/γ2(C68S) with anti-6His-Tb cryptate, cyclic peptide 0-10,000 nM; 1X PBS 7.4, 2 mM DTT, 0.1% BSA, 2 mM MgCl2, 0.05% Tween, 0.5 mM GDP, 2 h at room temperature
Conditions: both partners purified

T1 sequence (P62873 whole entry, chain 1 of 2): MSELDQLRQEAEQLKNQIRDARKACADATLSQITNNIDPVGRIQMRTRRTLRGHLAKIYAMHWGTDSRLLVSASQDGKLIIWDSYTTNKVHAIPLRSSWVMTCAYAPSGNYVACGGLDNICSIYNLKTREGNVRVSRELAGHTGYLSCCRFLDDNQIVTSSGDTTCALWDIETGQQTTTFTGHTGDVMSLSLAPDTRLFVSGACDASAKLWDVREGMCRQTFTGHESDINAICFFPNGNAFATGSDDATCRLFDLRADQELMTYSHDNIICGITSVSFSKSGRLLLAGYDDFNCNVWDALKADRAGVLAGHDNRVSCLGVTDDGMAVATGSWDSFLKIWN
T1 sequence (P59768 whole entry C68S, chain 2 of 2): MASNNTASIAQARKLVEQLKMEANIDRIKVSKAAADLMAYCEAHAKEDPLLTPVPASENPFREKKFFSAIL

B1: Biotinylated Avi-Gαs (WT), residues 7-380 of the short isoform of human Gαs (natural protein)
chain: SKTEDQRNEEKAQREANKKIEKQLQKDKQVYRATHRLLLLGAGESGKSTIVKQMRILHVNGFNGDSEKATKVQDIKNNLKEAIETIVAAMSNLVPPVELANPENQFRVDYILSVMNVPDFDFPPEFYEHAKALWEDEGVRACYERSNEYQLIDCAQYFLDKIDVIKQADYVPSDQDLLRCRVLTSGIFETKFQVDKVNFHMFDVGGQRDERRKWIQCFNDVTAIIFVVASSSYNMVIREDNQTNRLQEALNLFKSIWNNRWLRTISVILFLNKQDLLAEKVLAGKSKIEDYFPEFARYTTPEDATPEPGEDPRVTRAKYFIRDEFLRISTASGDGRHYCYPHFTCAVDTENIRRVFNDCRDIIQRMHLRQYELL
modifications: biotin on the Avi tag (BirA)
notes: human Gαs (GNAS), short isoform, residues 7-380; Loaded with GNP (GppNHp) or GDP; the nucleotide state is told by the assay; also called Gαs/GNP; Gαs/GDP; source: E. coli BL21(DE3), purified (TALON, Drice cleavage, BirA biotinylation, Source-15Q, gel filtration); not shown: Avi tag, N-terminal, kept; His6, N-terminal, cleaved
B1: binds.
